Measured values taken from paper doi:10.1101/2025.02.22.639503 (bioRxiv, 2025).
Values joined by “and” are separate entries in the source; they are usually repeats but may differ in a detail not shown here. Identical values can stand only once.

B1: HSV-1 terminase subunit pUL15 (His-pUL15) (natural protein)
chain: MFGQQLASDVQQYLERLEKQRQLKVGADEASAGLTMGGDALRVPFLDFATATPKRHQTVVPGVGTLHDCCEHSPLFSAVARRLLFNSLVPAQLKGRDFGGDHTAKLEFLAPELVRAVARLRFKECAPADVVPQRNAYYSVLNTFQALHRSEAFRQLVHFVRDFAQLLKTSFRASSLTETTGPPKKRAKVDVATHGRTYGTLELFQKMILMHATYFLAAVLLGDHAEQVNTFLRLVFEIPLFSDAAVRHFRQRATVFLVPRRHGKTWFLVPLIALSLASFRGIKIGYTAHIRKATEPVFEEIDACLRGWFGSARVDHVKGETISFSFPDGSRSTIVFASSHNTNGIRGQDFNLLFVDEANFIRPDAVQTIMGFLNQANCKIIFVSSTNTGKASTSFLYNLRGAADELLNVVTYICDDHMPRVVTHTNATACSCYILNKPVFITMDGAVRRTADLFLADSFMQEIIGGQARETGDDRPVLTKSAGERFLLYRPSTTTNSGLMAPDLYVYVDPAFTANTRASGTGVAVVGRYRDDYIIFALEHFFLRALTGSAPADIARCVVHSLTQVLALHPGAFRGVRVAVEGNSSQDSAVAIATHVHTEMHRLLASEGADAGSGPELLFYHCEPPGSAVLYPFFLLNKQKTPAFEHFIKKFNSGGVMASQEIVSATVRLQTDPVEYLLEQLNNLTETVSPNTDVRTYSGKRNGASDDLMVAVIMAIYLAAQAGPPHTFAPITRVS
B2: HSV-1 terminase heterotrimer (pUL15, pUL28, pUL33) (complex)
chain 1: B1 chain
chain 2: MAAPVSEPTVARQKLLALLGQVQTYVFQIELLRRCDPHIGRGKLPQLKLNALQVRALRRRLRPGLEAQAGAFLTPLSVTLELLLEYAWREGERLLGSLETFATAGDVAAFFTETMGLARPCPYHQRVRLDTYGGTVHMELCFLHDVENFLKQLNYCHLITPSRGATAALERVREFMVGAVGSGLIVPPELSDPSHPCAVCFEELCVTANQGATIARRLADRICNHVTQQAQVRLDANELRRYLPHAAGLSDADRARALSVLDHALARTAGGDGQPHPSPENDSVRKEADALLEAHDVFQATTPGLYAISELRFWLASGDRAGQTTMDAFASNLTALARRELQQETAAVAVELALFGRRAEHFDRAFGSHLAALDMVDALIIGGQATSPDDQIEALIRACYDHHLTTPLLRRLVSPEQCDEEALRRVLARMGAGGAADAPKGGAGPDDDGDRVAVEEGARGLGAPGGGGEDEDRRRGPGGQGPETWGDIATQAAADVRERRRLYADRLTKRSLASLGRCVREQRGELEKMLRVSVHGEVLPATFAAVANGFAARARFCALTAGAGTVIDNRSAPGVFDAHRFMRASLLRHQVDPALLPSITHRFFELVNGPLFDHSTHSFAQPPNTALYYSVENVGLLPHLKEELARFIMGAGGSGADWAVSEFQRFYCFDGISGITPTQRAAWRYIRELIIATTLFASVYRCGELELRRPDCSRPTSEGRYRYPPGVYLTYDSDCPLVAIVESAPDGCIGPRSVVVYDRDVFSILYSVLQHLAPRLPDGGHDGPP
chain 3: MAGREGRTRQRTLRDTIPDCALRSQTLESLDARYVSRDGAHDAAVWFEDMTPAELEVVFPTTDAKLNYLSRTQRLASLLTYAGPIKAPDDAAAPQTPDTACVHGELLAAKRERFAAVINRFLDLHQILRG
B3: HSV-1 terminase subunit pUL33 (natural protein)
chain: B2 chain 3

Tests used:
Test in all cases: native MS
[1] = target: KSHV (HHV-8) pORF68 (TwinStrep-ORF68) (human herpesvirus 8 (KSHV HHV-8))
[2] = target: HSV-1 terminase-associated protein pUL32 (Strep-pUL32) (herpes simplex virus 1 (HSV-1)) (UniProt P10216)
[3] = target: Alcohol Dehydrogenase from Saccharomyces cerevisiae (Saccharomyces cerevisiae) (UniProt P00330)
[4] = target: T1, HSV-1 terminase subunit pUL28 (herpes simplex virus 1 (HSV-1, strain …, UniProt P10212 1-785))
T1 sequence: B2 chain 2

native MS = target: the molecule itself
[5] = target: B1

Which stoichiometry N [1] does the source give for “KSHV (HHV-8) pORF68 (TwinStrep-ORF68) (natural protein)” here?
The stoichiometry N was 10.

For “HSV-1 terminase-associated protein pUL32 (Strep-pUL32) (from UniProt P10216 1-596) (natural protein)”, which stoichiometry N [2] is on record?
The stoichiometry N was 3.

For “Alcohol Dehydrogenase from Saccharomyces cerevisiae (from UniProt P00330 1-348) (enzyme)”, which stoichiometry N [3] is on record?
The stoichiometry N was 4.

Does B1 bind [4]?
Result: binds

B2 was tested. Which “stoichiometry N” value (native MS) did it give?
Its value is 2 and 3.

Does B3 bind [5]?
Result: binds
